Series [1] addresses T1, AtARF5-DBD (Arabidopsis thaliana, UniProt P93024 1-390).
T1 sequence: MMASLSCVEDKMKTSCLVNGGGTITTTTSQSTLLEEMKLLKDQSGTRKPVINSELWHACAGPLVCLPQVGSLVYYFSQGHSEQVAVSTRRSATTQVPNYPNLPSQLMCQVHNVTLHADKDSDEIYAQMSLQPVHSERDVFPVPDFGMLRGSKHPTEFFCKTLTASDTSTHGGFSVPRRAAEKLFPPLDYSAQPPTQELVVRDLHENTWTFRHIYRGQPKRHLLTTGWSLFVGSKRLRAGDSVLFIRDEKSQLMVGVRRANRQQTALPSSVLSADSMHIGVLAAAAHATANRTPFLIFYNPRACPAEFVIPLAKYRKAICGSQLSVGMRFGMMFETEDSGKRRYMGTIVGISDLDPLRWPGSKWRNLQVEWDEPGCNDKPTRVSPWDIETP
Briefly: Ni-NTA pull-down with SYBR Gold fluorescence.

Series [2] has as its target T1, AtARF5-DBD. The series can be described thus: Ni-NTA pull-down with SYBR Gold fluorescence. The source holds these as a separate data set.

Positions count from the first letter of the chain named. Where two headings read alike, the source gives them in different places.

B1: ER7-GG (dsDNA)
DNA 1: CCGGTAGGTTGTCGGCCAAAGGCCGACAACCGGTAGG
DNA 2: CCTACCGGTTGTCGGCCTTTGGCCGACAACCTACCGG
Take B1: in the series with AtARF5-DBD [1], the binding result was “binds”.

B2: ER7 (dsDNA)
DNA 1: B1 DNA 1 with G14T, G15C, C23G, C24A
DNA 2: B1 DNA 2 with G14T, G15C, C23G, C24A
Turning to B2, the binding result with AtARF5-DBD [2] is reported as “binds”.

The record behind these values is paper doi:10.1101/634816.
